The text below walks through data of paper PMC5906480, “Tau Antibody Structure Reveals a Molecular Switch Defining a Pathological Conformation of the Tau Protein” (Scientific Reports, 2018).

Experiment [1] deals with normal tau in the soluble tau fraction (S1) from healthy control subjects. Briefly: Western and dot blot, healthy control brain. The format is binding, human. Conditions: C5.2 1 µg/mL overnight 4 °C, pool of 4 healthy control donors. How it is done: Mice were euthanized by cervical dislocation. Brains were quickly removed, weighed and divided sagittally down the midline to yield two hemispheres. One hemisphere was parted from the cerebellum and hindbrain, the forebrain containing cerebral cortex and hippocampus was snap-frozen on dry ice and stored at −80 °C until use for biochemical analysis. Frontal cortices from 4 AD donors (2 males and 2 females) and 4 non-demented healthy controls (HC, 2 males and 2 females) were obtained from Cambridge Bioscience (Cambridge, UK). The brain tissue samples were fresh-frozen and stored at −80 °C until used for biochemical analysis. All donors were of Caucasian race. Age of AD donors: 76–91 years. Age of the HC donors: 57–80 years. […]
(§1) Samples were boiled in 1 × LDS loading buffer and 100 mM DTT. […] Tau and pTau levels were assessed in the samples using 1 μg/mL C5.2 overnight at 4 °C. A secondary fluorophore conjugated IgG antibody was used (IRDye 680 Goat anti-mouse, LICOR biosciences) and the signal was quantified using Odyssey CLx and Image studio software (LI-COR biosciences).
(§2) 1 μl sample of S1 and P3 isolated from 24 weeks old rTg4510 and non-transgenic littermate (non-tg) mice or from four pooled Alzheimer’s disease (AD) and healthy control (HC) brains was spotted on nitrocellulose membranes. […] Bound antibodies were detected using an enhanced chemiluminescence system (ECL PLUS kit; Perkin Elmer).

The next experiment concerns pS396 peptide. Put plainly: ELISA, pS396 peptide. It counts as binding. How it is done: (§3) Immulon 4 HBX (extra high-binding) 96-well microtiter plates (Thermo Scientific) were coated with the same peptide used for crystallization diluted to 2 μg/mL in phosphate-buffered saline (PBS) and left overnight at 4 °C (Table 1). Plates were then washed three times in PBS-T (PBS containing 0.05% Tween-20) and blocked in 5% non-fat milk and 3% bovine serum albumin in PBS for 2 hours at room temperature. Plates were subsequently washed 3 times in PBS-T before C5.2 was serially diluted (8 μg/mL–0.05 ng/mL) in PBS and incubated for 1 hour at room temperature. Then, alkaline phosphatase-conjugated goat anti-mouse IgG (Southern Biotech) was diluted 1:2000 in PBS and incubated for 30 minutes at room temperature. Finally, bound IgG was analyzed by addition of p-nitrophenyl phosphate substrate (Thermo Scientific) and measurement at 405 nm on a VersaMax Microplate Reader.
(§4) In order to evaluate the ability of C5.2 to exclusively target the phosphorylated epitope, we performed an enzyme-linked immunosorbent assay (ELISA). The peptides used in the assay are the same peptides used for crystallization and diluted to a concentration of 2 μg/mL (Table 1). Binding curves were generated from ELISA data by maintaining plate-bound peptide concentrations and serially diluting C5.2 IgG (Fig. 1c).

For experiment [2], the system named is FITC-conjugated tau peptide pS396. Briefly: Fluorescence polarization direct binding, pS396 peptide. How it is done:
FITC-labeled peptides used in fluorescence polarization experiments were synthesized by Biomatik (Cambridge, ON, Canada). Fab C5.2 affinity was determined using a fluorescence polarization-based direct binding assay with fluorescein isothiocyanate (FITC)-conjugated peptides (Table 1). The FITC-peptide concentration was kept constant at 300 nM while Fab C5.2 was serially diluted from 675 nM to 0.08 nM. Data was collected at 25 °C using excitation and emission wavelengths of 485 nm and 535 nm, respectively. Each experiment was done in a single 96-well plate and calculated in triplicate (buffer: 50 mM Tris, 100 mM NaCl, 0.1% pluronic F-127). The experiments were performed with a DTX 880 Multimode Detector (Beckman Coulter, Jersey City, NJ). Fluorescence data was reduced using multimode detection software and KD values were calculated in GraphPad Prism 7.0 using a nonlinear regression model.
To accurately measure the C5.2 binding affinity, we performed fluorescence polarization experiments to determine dissociation constants (KD), using the Fab C5.2 and four differentially phosphorylated FITC-conjugated peptides (Table 1). The peptide concentration was kept constant while that of Fab C5.2 was serially diluted from 675 nM to 0.08 nM (Fig. 1d). […] In comparison with a […] IgG molecule, each Fab fragment contains a single binding site so the KD was calculated using a nonlinear model.
(Fluorescence polarisation rises when a labelled molecule tumbles more slowly, as on binding a larger partner.)

Another experiment has as its system pS404 peptide. Briefly: ELISA, pS404 peptide. It counts as binding. The following applies: plate coated with peptide 2 μg/mL; C5.2 IgG 8 μg/mL–0.05 ng/mL, 1 h room temperature; 405 nm. How it is done: as §3, §4
(In an ELISA, binding on a coated surface is turned into a signal by an enzyme label.)

Experiment [3] has as its system tau in Alzheimer's disease brain fractions. Put plainly: Western and dot blot, Alzheimer's disease brain. The format is binding, human. How it is done:
Mice were euthanized by cervical dislocation. Brains were quickly removed, weighed and divided sagittally down the midline to yield two hemispheres. One hemisphere was parted from the cerebellum and hindbrain, the forebrain containing cerebral cortex and hippocampus was snap-frozen on dry ice and stored at −80 °C until use for biochemical analysis. Frontal cortices from 4 AD donors (2 males and 2 females) and 4 non-demented healthy controls (HC, 2 males and 2 females) were obtained from Cambridge Bioscience (Cambridge, UK). The brain tissue samples were fresh-frozen and stored at −80 °C until used for biochemical analysis. All donors were of Caucasian race. Age of AD donors: 76–91 years. Age of the HC donors: 57–80 years. Post-mortem delays: 3–8 hours.
Brain tissue extraction was performed as described previously. Tissues were homogenized in 10 volumes of Tris-buffered saline containing protease and phosphatase inhibitors as follows: 50 mM Tris/HCl (pH 7.4); 274 mM NaCl; 5 mM KCl; 1% protease inhibitor mixture (Roche); 1% phosphatase inhibitor cocktail I & II (Sigma); and 1 mM phenylmethylsulfonyl fluoride (PMSF; Sigma). The homogenates were centrifuged at 27,000 × g for 20 min at 4 °C to obtain supernatant (S1) and pellet fractions. Pellets were re-homogenized in 5 volumes of high salt/sucrose buffer (0.8 M NaCl, 10% sucrose, 10 mM Tris/HCl, [pH 7.4], 1 mM EGTA, 1 mM PMSF) and centrifuged as above. The supernatants were collected and incubated with sarkosyl (1% final concentration; Sigma) for one hour at 37 °C, followed by centrifugation at 150,000 × g for one hour at 4 °C to obtain sarkosyl-insoluble pellets, referred to as P3. The P3 pellet was re-suspended in TE buffer (10 mM Tris/HCl [pH 8.0], 1 mM EDTA) to a volume equivalent to half of the original volume used for the brain homogenates. S1 and P3 fractions isolated from the individual 4 AD and 4 HC brains were pooled and used as AD pool and HC pool for western and dot blot analysis.
as §1, §2

“Also recorded” adds a separate entry of the source.

B1: C5.2: novel mouse monoclonal antibody that targets the pS396 tau epitope region (antibody, V domains shown)
VH: QVQLQQSDAELVKPGASVKISCKASGYTFTDRTIHWVKQRPEQGLEWIGYIYPGDDSTKYNDMFKAKATLTADKSSNTAYMQLNSLTSDDSAVYFCARRGTMDYWGQGTSVTVSS
VL: DVQMIQSPSSLSASLGDIVTMTCQASQDTSINLNWFQQKPGKAPKLLIYGASNLEDGVPSRFSGSRYGTDFTLTISSLEDEDMATYFCLQHTYLPFTFGSGTKLEIK
The term Kd denotes the free concentration of one partner at which half of the binding sites on the other are occupied at equilibrium, for simple one-to-one binding. For the molecule B1, the “Detection of normal tau (S1)” value in experiment [1] is “not detected”. The Phospho-specificity result is “pS396 phosphorylation state-specific mAb” with pS396 peptide (ELISA, vs pS404 and non-phosphorylated peptides); “phospho-specificity for pS396” in experiment [2] (both experiments (ELISA and fluorescence polarization)). In addition, in the experiment with pS396 peptide (plate coated with peptide 2 μg/mL, C5.2 IgG 8 μg/mL–0.05 ng/mL, 1 h room temperature, 405 nm), the “Association with peptide (ELISA)” value was “strong association”. In addition, the Phosphorylation state-specificity result in experiment [2] (Discussion, ELISA and fluorescence polarization) is listed as “phosphorylation state-specific with nanomolar affinity”. The Kd in experiment [2] (restated in Discussion, fluorescence polarization, Fab C5.2) worked out at 14.9 nM. Further, the “Recognition of peptide (ELISA)” value with pS404 peptide is listed as “lack of recognition; also recorded: does not bind”. The “Binding to insoluble tau fraction (P3)” value in experiment [3] (C5.2 1 µg/mL overnight 4 °C, sarkosyl-insoluble P3, pool of 4 AD donors) is on record as “binds predominantly to an insoluble tau fraction (P3)”. Besides, the “Reactivity to soluble tau fraction (S1)” value in experiment [3] (C5.2 1 µg/mL overnight 4 °C, soluble S1, pool of 4 AD donors) is recorded as “also has reactivity to a soluble tau fraction (S1)”. Moreover, the “Specificity for pathological tau protein” value in experiment [3] (overall statement from blots and immunohistochemistry (Fig. 1), AD and rTg4510 vs controls) was “specific for pathological tau protein”. In addition, in experiment [3] (western blot, C5.2 1 µg/mL, pool of 4 AD donors), the “Bands recognized in S1 and P3” value is “recognizes similar bands in both fractions”.
